Assay results reported in publication PMC4874776.

Columns and labels:
[1] = target: glycosylated FG domain of Nup98 from Xenopus tropicalis (Nup98-glyco), amino acids 1 to 485, with an N-terminal His14-TEV tag (X. tropicalis); test: spectroscopic ellipsometry + QCM-D; FG domain end-grafted through its His tag (4-11 pmol/cm^2) on His tag capturing QCM-D sensors (NTF2 with Nsp1) or on Ni2+-NTA supported lipid bilayers (Nup98-glyco, reg-FSFG, Impβ with Nsp1); NTR titrated in solution from 0.0025 to 10 uM, equilibrium bound amounts by SE; 10 mM Hepes pH 7.4, 150 mM NaCl, 23 °C; linear fit at cNTR <= 0.05 uM, Hill equation at 0.05-10 uM
[2] = target: reg-FSFG, an artificially designed regular FSFG domain with 16 repetitions of the sequence … and an N-terminal His14-TEV tag; test: as above
[3] = target: glycosylated FG domain of Nup98 from Xenopus tropicalis (Nup98-glyco), amino acids 1 to 485, with an N-terminal His14-TEV tag (X. tropicalis); test: spectroscopic ellipsometry; NTF2 and NTF2 W7A mutant sequentially exposed to FG domain films (5-13 pmol/cm^2), equilibrium bound amounts by SE, two to four measurements per FG domain type; native NTF2 on a reg-SSSG film (8.3 pmol/cm^2) as control
[4] = target: reg-FSFG, an artificially designed regular FSFG domain with 16 repetitions of the sequence … and an N-terminal His14-TEV tag; test: as above

| Substance | FG motifs in the film per bound NTR at cNTR = 10 uM (FG motifs per bound NTF2 dimer) [1] | FG motifs in the film per bound NTR at cNTR = 10 uM (FG motifs per bound NTF2 dimer) [2] | reduction of the equilibrium bound amount against native NTF2 [3] | reduction of the equilibrium bound amount against native NTF2 [4] |
| --- | --- | --- | --- | --- |
| nuclear transport factor 2 from Homo sapiens (NTF2) (from UniProt P61970 1-127) (receptor) | > 10 | > 10 |  |  |
| W7A mutant of NTF2 (from UniProt P61970 1-127) (receptor) |  |  | > 80% | > 80% |
